Results on five substances are retold here after patent US20030113743.

Series [1] concerns synthetic peptide, residues 210-236 of hK2 (peptide #1 of FIG. 16).
For series [2], the system named is phK2^v217 (pro form of hK2 with valine at residue 217).
Series [3] concerns peptide #3 of FIG. 16, amino acid residues -7 to +7 of phK2.

Chain of synthetic peptide, residues 210-236 of hK2 (peptide #1 of FIG. 16) (chain, as listed by the source): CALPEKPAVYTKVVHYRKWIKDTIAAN

Take “hK2^v217 (mature hK2 polypeptide having an alanine to valine substitution at amino acid position 217)”: the “peptide bond cleavage (RP-HPLC, N-terminal sequencing)” value in series [1] is “trypsin-like cleavage at a 2:1 ratio over the chymotrypsin-like cleavage”. In addition, the “conversion of pro to mature form (HIC-HPLC)” value in series [2] is “no difference in the ratios of the two hK2 forms was detected even after 6 hours”.
Take trypsin: the “conversion of pro to mature form (HIC-HPLC, N-terminal sequencing)” value in series [2] is recorded as “complete conversion of phK2^v217 to hK2^v217”.
“phK2^v217 (pro form of hK2 with valine at residue 217)”: the “peptide bond cleavage (RP-HPLC, N-terminal sequencing)” value in series [1] is recorded as “showed no amidolytic activity”.
For the substance “wild type mature hK2 (prostate-specific glandular kallikrein protein)”, the “peptide bond cleavage (RP-HPLC, N-terminal sequencing)” value in series [1] was “its activity was exclusive for the trypsin-like site (R-K)”. For the same substance, the “conversion of pro to mature form (HIC-HPLC)” value in series [2] was “at a rate about 30× slower than trypsin”. In series [3], the peptide bond cleavage entry is “hK2 was able to cleave this peptide releasing the propeptide region”.
Take “prostate-specific antigen protein, hK3 (PSA)”: the “peptide bond cleavage (RP-HPLC, N-terminal sequencing)” value in series [1] was “PSA cleaved the Y-R bond primarily”.
